T1: biotinylated recombinant human IL-12Rβ2 (human, UniProt Q99665 24-622, random biotinylated)
T1 construct: Recombinant protein produced in-house, biotinylated; also called hIL-12RB2; human IL-12RB2
T1 sequence: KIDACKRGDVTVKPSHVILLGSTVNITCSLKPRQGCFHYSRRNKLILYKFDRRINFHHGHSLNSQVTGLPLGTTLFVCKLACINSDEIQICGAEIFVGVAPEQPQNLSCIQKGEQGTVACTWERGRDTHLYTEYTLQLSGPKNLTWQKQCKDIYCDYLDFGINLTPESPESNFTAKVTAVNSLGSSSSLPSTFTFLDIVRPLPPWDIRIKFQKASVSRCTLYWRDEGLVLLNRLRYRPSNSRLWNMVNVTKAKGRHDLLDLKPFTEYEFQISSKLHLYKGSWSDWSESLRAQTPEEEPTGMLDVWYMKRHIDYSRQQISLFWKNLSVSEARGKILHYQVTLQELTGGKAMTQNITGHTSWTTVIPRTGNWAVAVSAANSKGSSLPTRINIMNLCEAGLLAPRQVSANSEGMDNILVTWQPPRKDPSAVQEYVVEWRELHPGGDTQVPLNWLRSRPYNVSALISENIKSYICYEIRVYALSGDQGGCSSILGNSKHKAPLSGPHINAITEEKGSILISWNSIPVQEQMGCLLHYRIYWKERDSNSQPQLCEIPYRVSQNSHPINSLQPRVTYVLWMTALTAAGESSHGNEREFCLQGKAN

T2: biotinylated recombinant mouse IL-12Rβ2 (mouse, UniProt P97378 24-637, random biotinylated)
T2 construct: Recombinant protein produced in-house, biotinylated; also called mIL-12RB2; mouse IL-12RB2
T2 sequence: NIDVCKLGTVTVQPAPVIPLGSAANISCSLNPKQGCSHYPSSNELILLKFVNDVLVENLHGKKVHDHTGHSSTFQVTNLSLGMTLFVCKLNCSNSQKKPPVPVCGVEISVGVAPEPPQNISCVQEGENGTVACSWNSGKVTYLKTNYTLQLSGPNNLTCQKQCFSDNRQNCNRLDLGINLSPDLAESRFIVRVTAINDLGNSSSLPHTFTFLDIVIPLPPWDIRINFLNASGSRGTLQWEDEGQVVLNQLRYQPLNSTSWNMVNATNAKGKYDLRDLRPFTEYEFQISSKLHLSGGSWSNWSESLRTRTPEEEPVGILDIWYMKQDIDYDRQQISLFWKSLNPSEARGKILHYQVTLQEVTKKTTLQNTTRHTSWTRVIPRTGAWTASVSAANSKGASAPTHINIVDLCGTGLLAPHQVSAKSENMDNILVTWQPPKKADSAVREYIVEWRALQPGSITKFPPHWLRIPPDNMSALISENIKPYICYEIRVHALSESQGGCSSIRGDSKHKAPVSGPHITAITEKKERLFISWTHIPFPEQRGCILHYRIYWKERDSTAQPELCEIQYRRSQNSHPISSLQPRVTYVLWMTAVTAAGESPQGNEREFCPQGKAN

T3: human IL-12Rβ2 expressed on cells (human, UniProt Q99665 24-862)
T3 construct: the cell lines are described by plasmid or cDNA number only; also called hIL-12RB2; HEK293T transiently transfected with human IL-12Rβ2
T3 sequence: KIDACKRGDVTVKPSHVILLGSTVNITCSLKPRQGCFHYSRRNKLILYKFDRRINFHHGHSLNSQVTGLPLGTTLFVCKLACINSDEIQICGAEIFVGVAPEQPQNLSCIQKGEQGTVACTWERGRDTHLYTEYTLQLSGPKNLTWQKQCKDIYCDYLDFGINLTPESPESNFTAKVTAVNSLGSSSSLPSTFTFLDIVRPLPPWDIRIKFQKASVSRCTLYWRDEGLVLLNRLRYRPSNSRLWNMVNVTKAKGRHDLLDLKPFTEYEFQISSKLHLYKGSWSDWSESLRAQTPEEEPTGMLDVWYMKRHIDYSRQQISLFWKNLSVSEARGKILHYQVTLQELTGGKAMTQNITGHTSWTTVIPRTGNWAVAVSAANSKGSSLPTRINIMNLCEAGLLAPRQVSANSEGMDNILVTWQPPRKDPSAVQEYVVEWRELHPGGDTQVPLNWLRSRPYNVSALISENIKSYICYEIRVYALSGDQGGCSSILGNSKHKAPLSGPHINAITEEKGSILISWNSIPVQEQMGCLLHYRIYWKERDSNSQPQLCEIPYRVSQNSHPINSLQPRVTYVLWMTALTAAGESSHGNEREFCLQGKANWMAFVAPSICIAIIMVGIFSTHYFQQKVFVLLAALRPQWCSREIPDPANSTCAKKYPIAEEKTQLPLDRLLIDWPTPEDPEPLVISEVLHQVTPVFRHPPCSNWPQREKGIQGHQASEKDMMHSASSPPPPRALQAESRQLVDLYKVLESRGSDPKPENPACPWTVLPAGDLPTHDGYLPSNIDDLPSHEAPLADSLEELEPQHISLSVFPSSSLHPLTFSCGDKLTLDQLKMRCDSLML

T4: biotinylated mouse recombinant IL-12Rβ2 (produced in-house) (mouse, UniProt P97378 24-637, random biotinylated)
T4 construct: Soluble recombinant protein used for panning, ELISA and BLI; also called mIL-12RB2; mIL12RB2
T4 sequence: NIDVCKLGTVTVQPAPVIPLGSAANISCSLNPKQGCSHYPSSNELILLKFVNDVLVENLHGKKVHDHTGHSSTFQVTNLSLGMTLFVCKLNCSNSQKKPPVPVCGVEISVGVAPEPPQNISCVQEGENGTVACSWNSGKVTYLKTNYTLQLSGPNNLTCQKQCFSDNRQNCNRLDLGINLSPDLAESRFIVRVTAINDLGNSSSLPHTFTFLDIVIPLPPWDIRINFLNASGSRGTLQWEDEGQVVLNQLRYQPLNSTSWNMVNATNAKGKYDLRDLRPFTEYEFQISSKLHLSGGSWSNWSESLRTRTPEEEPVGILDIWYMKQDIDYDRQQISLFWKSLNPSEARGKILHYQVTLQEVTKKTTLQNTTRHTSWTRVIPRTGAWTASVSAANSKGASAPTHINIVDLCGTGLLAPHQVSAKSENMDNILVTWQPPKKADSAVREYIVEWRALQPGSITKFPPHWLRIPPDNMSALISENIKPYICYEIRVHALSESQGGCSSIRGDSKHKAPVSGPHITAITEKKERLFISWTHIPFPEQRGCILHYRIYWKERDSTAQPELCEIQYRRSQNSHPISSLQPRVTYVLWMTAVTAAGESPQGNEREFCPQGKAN

T5: biotinylated human recombinant IL-12Rβ2 (produced in-house) (human, UniProt Q99665 24-622, random biotinylated)
T5 construct: Soluble recombinant protein used for panning, ELISA and BLI; also called hIL-12RB2; hIL12RB2
T5 sequence: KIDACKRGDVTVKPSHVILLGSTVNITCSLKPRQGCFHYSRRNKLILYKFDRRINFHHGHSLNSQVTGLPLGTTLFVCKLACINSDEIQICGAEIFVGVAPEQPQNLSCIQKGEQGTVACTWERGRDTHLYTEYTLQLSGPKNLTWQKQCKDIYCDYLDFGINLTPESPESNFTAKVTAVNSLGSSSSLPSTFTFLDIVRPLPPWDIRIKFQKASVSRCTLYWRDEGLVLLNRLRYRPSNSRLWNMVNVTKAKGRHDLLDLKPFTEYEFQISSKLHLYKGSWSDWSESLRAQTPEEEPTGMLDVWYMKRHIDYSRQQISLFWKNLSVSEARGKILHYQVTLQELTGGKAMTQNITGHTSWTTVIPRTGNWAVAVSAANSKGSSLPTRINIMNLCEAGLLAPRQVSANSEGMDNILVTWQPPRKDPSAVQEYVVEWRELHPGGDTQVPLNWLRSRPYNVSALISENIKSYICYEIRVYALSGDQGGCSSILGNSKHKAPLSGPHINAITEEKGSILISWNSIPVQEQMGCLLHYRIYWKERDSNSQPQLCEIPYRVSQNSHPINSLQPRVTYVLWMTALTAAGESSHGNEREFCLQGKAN


Key:
[1] = biological target: T1, biotinylated recombinant human IL-12Rβ2; experiment: BLI (Octet), periplasmic extract on biotinylated hIL-12Rβ2 on streptavidin tips, 1:1 model
[2] = biological target: T1, biotinylated recombinant human IL-12Rβ2; experiment: BLI (Octet), periplasmic extract on biotinylated hIL-12Rβ2 on streptavidin tips
[3] = biological target: T2, biotinylated recombinant mouse IL-12Rβ2; experiment: ELISA, periplasmic extract on biotinylated mIL-12Rβ2, signal over control wells
[4] = biological target: T1, biotinylated recombinant human IL-12Rβ2; experiment: ELISA, periplasmic extract on biotinylated hIL-12Rβ2, signal over control wells
[5] = biological target: T3, human IL-12Rβ2 expressed on cells; experiment: flow cytometry, periplasmic extract VHH-HA on HEK293T cells transiently expressing human IL-12Rβ2
[6] = biological target: T4, biotinylated mouse recombinant IL-12Rβ2 …; experiment: ELISA, periplasmic extract on biotinylated mouse IL-12Rβ2
[7] = biological target: T4, biotinylated mouse recombinant IL-12Rβ2 …; experiment: ELISA, periplasmic extract on biotinylated mouse IL-12Rβ2; signal over streptavidin control well
[8] = biological target: T5, biotinylated human recombinant IL-12Rβ2 …; experiment: BLI (Octet Red), periplasmic extract on biotinylated human IL-12Rβ2 on streptavidin tips, 1:1 model
[9] = biological target: T5, biotinylated human recombinant IL-12Rβ2 …; experiment: ELISA, periplasmic extract on biotinylated human IL-12Rβ2; signal over streptavidin control well
[10] = biological target: T5, biotinylated human recombinant IL-12Rβ2 …; experiment: BLI (Octet Red), periplasmic extract on biotinylated human IL-12Rβ2 on streptavidin tips

Row | Binder | koff [1] | Response [2] | ELISA binding mIL-12RB2/control [3] | ELISA binding hIL-12RB2/control [4] | % cells bound [5] | dMFI [5] | binding result [6] | mIL12RB2/control (ELISA) [7] | koff [8] | hIL12RB2/control (ELISA) [9] | Response [10]
1 | anti-IL-12Rβ2 VHH clone 20389 (VHH, not shown: small tags and cut ends, tested as periplasmic extract; also called 3CRH73) VHH: QVQLQESGGGLVRAGGSLRLSCAASGHTFSNYVMGWFRQAPGKEREFVAAISWGGSNTYYADSVKGRFTISRDNAKNTVYLQMNSLKVEDTAVYYCAADRRFEGWNYYSMDYWGKGTQVTVSS | 0.0052 s⁻¹ | 0.565 | 1.18 ratio | 6.45 ratio |  |  |  |  |  |  | 
2 | anti-IL-12Rβ2 VHH clone 2CRH82 (clone ID 20372) (VHH, Tested as periplasmic extract; not shown: C-terminal HA tag) VHH: QVQLQESGGGLVQAGGSLRLSCAASARTESMYAMAWFRQAPGKEREIVAGIIQSGGTTYISDYMKGRFSIDRGNAENTVYLQMDSLKPEDTAVYSCAAKVSSGTPSDIQISQSRWYDHWGQGTQVTVSS |  |  |  |  | 40.1% | 744 | no binding | 1.77 ratio | 0.00274 s⁻¹ | 16.1 ratio | 0.426
3 | anti-IL-12Rβ2 VHH clone 20372 (VHH, not shown: small tags and cut ends, tested as periplasmic extract; also called 2CRH82) VHH: QVQLQESGGGLVQAGGSLRLSCAASARTESMYAMAWFRQAPGKEREIVAGIIQSGGTTYISDYMKGRFSIDRGNAENTVYLQMDSLKPEDTAVYSCAAKVSSGTPSDIQISQSRWYDHWGQGTQVTVSS | 0.00274 s⁻¹ | 0.426 | 1.77 ratio | 16.1 ratio |  |  |  |  |  |  | 
4 | anti-IL-12Rβ2 VHH clone 3CRH5 (clone ID 20373) (VHH, Tested as periplasmic extract; also called 3CRHS; not shown: C-terminal HA tag) VHH: QVQLQESGGGLVQAGGSLVLSCAASGSAALIFLMSWYRQAPGKQRELVAEVSRGGSTTYADSVEGRFTISRDNAKNIVDLQMNSLKPEDTAVYYCKADQNYGDSLRSSWGQGTQVTVSS |  |  |  |  | 39.5% | 735 | no binding | 0.81 ratio | 0.00337 s⁻¹ | 8.64 ratio | 0.491
5 | anti-IL-12Rβ2 VHH clone 20404 (VHH, not shown: small tags and cut ends, tested as periplasmic extract; also called 3CAHS153) VHH: QVQLQESGGGLVQAGGSLRLSCAASGRTFSSYAMGWFRQVPGKERDFVAAVSWGGLSTYYADSVEGRFTISRDNAKNTVFLQMNSLKPEDTAVYYCAADRAYEGLGYGEYEYWGQGTQVTVSS | 0.00302 s⁻¹ | 0.163 | 1.08 ratio | 3.32 ratio |  |  |  |  |  |  | 
6 | anti-IL-12Rβ2 VHH clone 3CRHS51 (clone ID 20421) (VHH, Tested as periplasmic extract; also called 3CRHSS1; not shown: C-terminal HA tag) VHH: QVQLQESGGGLVQPGGSLRLSCAASGFTFSTYAMSWVRQAPGKGLEWVSAVNSGGLSTDYADSVEGRFTISRDDAKNMLFLQMNRLKPEDTARYYCAKYEDCSDYVCDRAGYWGQGTQVTVSS |  |  |  |  | 46% | 1140 | no binding |  | 0.0043 s⁻¹ |  | 0.327

From patent publication US20260209362A1 (VIB VZW, published 2026)
